According to patent US20110059095A1 (Regeneron, published 2011):
Positions count from the first letter of the chain named.

Tests used:
[1] = molecular target: T1, C-terminal biotinylated human PAR-2 peptide SEQ ID NO:875 (Leu-38 to Ala) (human, not fully specified; C-terminal biotin (K-B)); experiment: BLI Exp1
T1 construct: alanine-scan mutant
T1 peptide: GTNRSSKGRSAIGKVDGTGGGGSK
Protocol: (§1) In order to more particularly identify the amino acids of PAR-2 with which the PAR-2 antibodies interact, an alanine scanning study was carried out using peptides comprising the activating PAR-2 protease cleavage site.
(§2) The ability of each peptide mutant to bind to PAR-2 antibodies was measured using biolayer interferometry (Octet Red; ForteBio). Each peptide (2.5 μg/ml) was captured on streptavidin coated biosensor tips (Octet SA sensor) for 10 seconds. To measure binding and dissociation between each peptide and PAR-2 antibody, the peptide-coated biosensors were contacted with 200 nM solutions of PAR-2 antibodies for 5 minutes (binding) followed by transfer to buffer with no antibody for 10 min (dissociation). […] The results are expressed as percent binding and percent T_{1/2} relative to WT peptide (Tables 24-28).

[2] = molecular target: T2, C-terminal biotinylated human PAR-2 peptide SEQ ID NO:873 (Arg-36 to Ala) (human, not fully specified; C-terminal biotin (K-B)); experiment: BLI Exp1
T2 construct: alanine-scan mutant
T2 peptide: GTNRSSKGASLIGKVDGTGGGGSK
Protocol: as §1, §2

[3] = molecular target: T3, C-terminal biotinylated human PAR-2 peptide SEQ ID NO:880 (Asp-43 to Ala) (human, not fully specified; C-terminal biotin (K-B)); experiment: BLI Exp1
T3 construct: alanine-scan mutant
T3 peptide: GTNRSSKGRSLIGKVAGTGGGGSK
Protocol: as §1, §2

[4] = molecular target: T4, C-terminal biotinylated human PAR-2 peptide SEQ ID NO:878 (Lys-41 to Ala) (human, not fully specified; C-terminal biotin (K-B)); experiment: BLI Exp1
T4 construct: alanine-scan mutant
T4 peptide: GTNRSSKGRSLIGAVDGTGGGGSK
Protocol: as §1, §2

[5] = molecular target: T5, C-terminal biotinylated human PAR-2 peptide SEQ ID NO:879 (Val-42 to Ala) (human, not fully specified; C-terminal biotin (K-B)); experiment: BLI Exp1
T5 construct: alanine-scan mutant
T5 peptide: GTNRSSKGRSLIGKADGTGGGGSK
Protocol: as §1, §2

[6] = molecular target: T6, C-terminal biotinylated human PAR-2 peptide SEQ ID NO:881 (Gly-44 to Ala) (human, not fully specified; C-terminal biotin (K-B)); experiment: BLI Exp1
T6 construct: alanine-scan mutant
T6 peptide: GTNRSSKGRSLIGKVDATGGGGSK
Protocol: as §1, §2

[7] = molecular target: T7, C-terminal biotinylated human PAR-2 peptide SEQ ID NO:876 (Ile-39 to Ala) (human, not fully specified; C-terminal biotin (K-B)); experiment: BLI Exp1
T7 construct: alanine-scan mutant
T7 peptide: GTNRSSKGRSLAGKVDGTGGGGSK
Protocol: as §1, §2

full length mouse PAR-2 = molecular target: T8, full length mouse PAR-2 (mouse, UniProt P55086 26-399); experiment: MSD cell binding
T8 construct: also called 293/D9/mPAR-2rec cells
T8 chain: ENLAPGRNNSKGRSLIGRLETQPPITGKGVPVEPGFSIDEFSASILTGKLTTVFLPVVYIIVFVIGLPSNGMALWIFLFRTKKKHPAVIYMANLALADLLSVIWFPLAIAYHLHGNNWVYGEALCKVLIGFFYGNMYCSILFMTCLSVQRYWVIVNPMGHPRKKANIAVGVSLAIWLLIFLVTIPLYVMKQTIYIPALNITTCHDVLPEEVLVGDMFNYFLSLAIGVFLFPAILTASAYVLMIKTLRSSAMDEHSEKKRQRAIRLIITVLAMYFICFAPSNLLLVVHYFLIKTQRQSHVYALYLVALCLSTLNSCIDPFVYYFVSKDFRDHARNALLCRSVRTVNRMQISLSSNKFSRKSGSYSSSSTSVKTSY
Outline: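 Antibodies, two-fold dilutions from 100 nM to 0.098 nM, bound for 1 h at room temperature to HEK293/D9 cells stably expressing human or mouse PAR-2, detected by sulfo-tagged anti-human IgG electrochemiluminescence. Parental 293/D9 signal was subtracted; EC50 and Bmax came from sigmoidal dose-response fits.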

[8] = molecular target: T9, Peptide E (mouse PAR-2), unbiotinylated (Mouse (Mus musculus)); experiment: peptide ELISA titration; ELISA titration, antibody 13.3 nM to 0.22 pM, sigmoidal fit
T9 construct: also called Peptide E No Biotin
T9 peptide: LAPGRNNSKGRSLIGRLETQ
Protocol: Anti-PAR-2 antibodies were tested for their ability to bind to the PAR-2 peptides. Various PAR-2 Peptides (Table 3) were coated onto 96-well plates at a concentration of 2 μg/ml and incubated overnight followed by blocking in a suitable blocking agent for one hour. […] Purified anti-PAR-2 antibodies were added to the plate coated with PAR-2 peptides to a final concentration ranging from 0.2 to 2.0 μg/ml and incubated for one hour at room temperature. Detection of bound antibodies was determined with Horse-Radish Peroxidase (HRP) conjugated anti-mouse or human IgG (Jackson Immuno Research Lab, West Grove, Pa.) and developed by standard colorimetric response using tetramethylbenzidine (TMB) substrate. Absorbance was read at OD₄₅₀ for 0.1 second.
In another experiment, selected anti-PAR-2 antibodies cloned onto human IgG4 were tested for binding to unbiotinylated and biotinylated forms of PAR-2 peptides (Peptides A, E, F and G; as described above). […] Absorbance values at 450 nm were analyzed using a sigmoidal dose-response model in GraphPad Prism (GraphPad Software, Inc., La Jolla, Calif.) and EC₅₀ values were reported (Table 9). EC₅₀ values are defined as the antibody concentration required to achieve 50% maximal binding to PAR-2 peptide.

B1: H4H588N (antibody, human IgG4, V domains shown)
VH: EVQLLESGGGLVQPGGSLRLSCAASGFTFSSYAMTWVRQAPGKGLYWVSAISGGRGSAYYADSVKGRFTISRDNSKNTLYLQMNSLRAEDTAVYYCAKEGDSGYDLAYWGRGTLVTVSS
VL: DIQMTQSPSSLSASVGDRVTITCRARQGISNNLAWLQQKPGKAPKSLIYAASSLQSGIPSKFSGSGSGTYFTLTISSLQPEDFATYYCQQYKSSPLTFGGGTKVEIK
notes: also called H2M588N variable regions
% Rel Binding [1]: 127% | % Rel T1/2 [1]: 100% | % Rel Binding [2]: 208% | % Rel T1/2 [2]: 100% | % Rel Binding [3]: 35% | % Rel T1/2 [3]: 4% | % Rel Binding [4]: 217% | % Rel T1/2 [4]: 108% | % Rel Binding [5]: 74% | % Rel T1/2 [5]: 1% | % Rel Binding [6]: 81% | % Rel T1/2 [6]: 1% | % Rel Binding [7]: 92% | % Rel T1/2 [7]: 36% | binding result (full length mouse PAR-2): no binding (tested: 100 nM to 0.098 nM antibody)

B2: H4H579P (antibody, human IgG4, V domains shown)
VH: QVQLVESGGGVVQPGRSLRLSCVASGFTFSRYGMHWVRQAPGKGLEWLIVISYDGINKYYADSVKGRFTISRDNSKNTVYLQMNSLRAEDTGVYYCAKGDFWSGYFDYWGQGTLVTVSS
VL: DIVMTQTPLSSPVTLGQPASISCRSSQSLVHSDGNTYLSWLHQRPGQPPRLLIYKISNRFSGVPDRFSGSGAGTDFTLQISRVEAEDVGIYYCMQGTQFPTFGGGTKVEIK
notes: also called H1H579P variable regions
EC50 [8]: 0.713 nM

B3: H4H581P (antibody, human IgG4, V domains shown)
VH: B2 VH with M34I, L48V, G92A
VL: B2 VL with G96A
notes: also called mAb H4H581P; H1H581P variable regions
% Rel Binding [1]: 9% | % Rel T1/2 [1]: 0.4% | % Rel Binding [2]: 87% | % Rel T1/2 [2]: 122% | % Rel Binding [3]: 18% | % Rel T1/2 [3]: 36% | % Rel Binding [4]: 113% | % Rel T1/2 [4]: 63% | % Rel Binding [5]: 36% | % Rel T1/2 [5]: 1% | % Rel Binding [6]: 67% | % Rel T1/2 [6]: 117% | % Rel Binding [7]: 8% | % Rel T1/2 [7]: 0.2%

B4: H4H585P (antibody, human IgG4, V domains shown)
VH: B2 VH with G92A
VL: B2 VL
notes: also called H1H585P variable regions
EC50 [8]: 0.308 nM

B5: H4H583P (antibody, human IgG4, V domains shown)
VH: QVQLVESGGGVVQPGMSLRLSCTASGFTFRRYGMHWVRQAPGKGLEWVAVIWYDGSNKYYADSVKGRFTITRDNSKNTLYLQMNSLRAEDTAIYFCASEITIGDWFDPRGQGTLVTVSS
VL: AIQMTQSPSSLSASVGDRVTITCRASQGIRNDLGWFQQKPGKVPKLLIYAASTLHSGVPSRFSGSGFGTDFTLTISSLQPEDFATYYCLQDFNYPLTFGGGTKVEIK
notes: also called H1H583P variable regions
Bmax (full length mouse PAR-2): 7220 MSD Unit | EC50 (full length mouse PAR-2): 9.28 nM
